The nature of the data set: amyloid nucleation score (Sup35N fusion, yeast selection) (log enrichment); library NNK2; higher = more nucleation; inactive = no reads after selection. An outline of the steps: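 Sup35N fusions to peptides of 20 random codons were expressed in psi-negative yeast, induced 24 hours with 100 μM copper sulfate, and grown 7 days at 30°C on medium lacking adenine and uracil. Input and output plasmid inserts were sequenced by Illumina. The nucleation score is the DiMSum log enrichment of output over input reads, centred on the mode score of non-aggregating sequences. Sequences with under 100 input reads were excluded.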

± gives the uncertainty stated by the source.

Take RLLAVPLVRFRC: the amyloid nucleation score was -0.23 ± 0.79. With SSYPFNDPEMLG, the amyloid nucleation score was -1.09 ± 0.33. For LPILCTWLM the value was -0.347 ± 0.55; for PDDLYCNPEGSLYQSIW, “inactive”. Turning to DQFRHLVTGSNNTIIKYSGV, the amyloid nucleation score result is “inactive”. Then SIFKSIWDYLIYRSLVSHPH, with -0.305 ± 1. KEFYGKRIFRCLYDVLVVLF gave an amyloid nucleation score of -1.25 ± 0.54. On to VHRWSDTYTTTYM, for which the amyloid nucleation score was -0.535 ± 0.33. For QRCRFPYDTGSSTHSWTEVG the value was 0.614 ± 0.35. In the case of GDKVACKEIWTVNVYVNTLG, the amyloid nucleation score came out at 0.229 ± 0.26. For RSGSQENKVSECAQDTTFSV the value was 0.367 ± 0.54. YEIFGRTNPMMVDKNNAIWV: the amyloid nucleation score is -0.691 ± 0.42. Then YNSTR, with -0.082 ± 0.63. Regarding LIPVTGAMGSN, the amyloid nucleation score turned out to be 0.183 ± 0.4.

The substance CNPASYMSALVGGSVSRDSR registered an amyloid nucleation score of -0.076 ± 0.46. Turning to SSCVRLDELCAMMSMSWESQ, the amyloid nucleation score was 1.26 ± 0.38. For the substance LGLRDELTVVVCWFRTYLIR, the amyloid nucleation score turned out to be 4.634 ± 0.044.

In turn, FVTAKSYNVLISKGYRKELL displayed an amyloid nucleation score of -0.716 ± 0.48. CEFQILSN yielded an amyloid nucleation score of -0.381 ± 0.56. Substance INLRMCGFYTSFDLNWRRKW yielded an amyloid nucleation score of 4.981 ± 0.049.

RCGSDLCDTFWVTLRGYGEV registered an amyloid nucleation score of 0.595 ± 0.43. For RLQDNRDVATGH the value was “inactive”; for MVAGDKRDGG, 2.39 ± 0.07; for PWCGRSMYSVSGKGQMWMRA, 1.03 ± 0.4. For SFPRRMPSD the value was 2.38 ± 0.071; for PFVNVM, -0.047 ± 0.38; for RGSYMVPWHVERIIGNSRVS, -0.899 ± 0.23. Consider KCVSRISSGR, for which the amyloid nucleation score amounted to 1.03 ± 0.66. KIWDCSMYTF: the amyloid nucleation score was -1.07 ± 0.55. Consider WASFW, for which the amyloid nucleation score is -0.725 ± 0.45.

On to EYQLDHVY, for which the amyloid nucleation score was -0.711 ± 1.1.

As to PSNLKFKYSCFLLNKCMGVR, the amyloid nucleation score was 0.153 ± 0.43. Regarding CMDYHICHIM, the amyloid nucleation score stood at 3.89 ± 0.11. Then YSCFEMSCVGLGDVMIFIVL, with 8.119 ± 0.037. HEGIDVSMPHQDRTAADNLA yielded an amyloid nucleation score of 0.409 ± 0.53. AGRLLGNVGNWRANEGAGGD: the amyloid nucleation score is -0.833 ± 1.1. Turning to DWWERGRVGSGCQSLGVTLH, the amyloid nucleation score stood at 0.923 ± 0.81. Substance DEIIQRWIFNFIWDRLFYLR registered an amyloid nucleation score of 0.94 ± 0.14. Then VWRPRTFLLIHYVVKDKRTP, with -0.507 ± 0.79. DSASVRVVIADEDLSAVVRA had an amyloid nucleation score of 1.72 ± 0.27. In turn, LCDTVTYWVPLC came in with an amyloid nucleation score of 4.28 ± 0.094. Consider LTSGNSMIVVS, for which the amyloid nucleation score was 0.15 ± 0.18.

Substance NNMPFCNYEAFNFYNGMSAF had an amyloid nucleation score of -1.55 ± 1.1. For the substance LVMYGEDDD, the amyloid nucleation score was -0.025 ± 1.1.

RQMMWRYEE: the amyloid nucleation score is 0.3 ± 0.32.

For FDDLLEARYSFSVKVCY, the amyloid nucleation score is -0.947 ± 0.35. With IDLNLYERFDFQFTVSVPSV, the amyloid nucleation score entry is “inactive”. Regarding GTMDITYTY, the amyloid nucleation score worked out at 2.44 ± 0.11. Regarding SVFGTLFDYGRRSTTFNGLK, the amyloid nucleation score entry was “inactive”.

For the substance GQLSVVKCRSY, the amyloid nucleation score worked out at 1.14 ± 0.29. Then TCFHR, with 0.285 ± 0.55; and LVMVWFLNLVFCFGDFNSNR, with 0.74 ± 0.18; and HEECIGSCCYGRWSCGTTLW, with 4.84 ± 0.054.

For CGKCWCEVD, the amyloid nucleation score was 0.359 ± 0.37. Substance EELKYYSISVMLRGRHALLI had an amyloid nucleation score of -0.894 ± 0.56. As to FAFKTLVWHRGVCRFPGARL, the amyloid nucleation score result was “inactive”.

VLRTPIIHTMGTGQV returned an amyloid nucleation score of 0.297 ± 0.56. Then LFNVMFRSLMVGWMYHENGL, with 0.525 ± 0.44; and FLYLIMKGPLAVKYCIKSLG, with -0.545 ± 0.76; and LSTRLGNVSHFWLWTRSCMG, with 1.04 ± 0.34. Substance VGKRNLISMVGYPYD registered an amyloid nucleation score of -1.09 ± 0.39. Regarding TRYMFMVTKLPGPGGCSVNE, the amyloid nucleation score entry was “inactive”.

YENFLLLL returned an amyloid nucleation score of -0.676 ± 0.26. As to VRSVGGTLASPWRAYGC, the amyloid nucleation score came out at 0.527 ± 0.57. Consider SRACRFTFD, for which the amyloid nucleation score is 0.49 ± 0.42. On to AYAHH, for which the amyloid nucleation score turned out to be 4.08 ± 0.072.

Substance YHVPSGTCATR yielded an amyloid nucleation score of 0.912 ± 0.58. Then YKYSCFDRG, with “inactive”. Substance LYLIRRHESCCLPNIR showed an amyloid nucleation score of 0.039 ± 0.46. For GYGRLIWLGACRL, the amyloid nucleation score was found to be 1.18 ± 0.48. Take LAAWLWYTWKG: the amyloid nucleation score turned out to be 0.589 ± 0.66. Consider KKVVLRPS, for which the amyloid nucleation score is 4.97 ± 0.051. Then SNVSVYPTMWGRVVHRPYTW, with 0.032 ± 0.39. QNACH returned an amyloid nucleation score of -0.011 ± 1.1. For LAQVFIIEAPFMTKFLPMLR the value was 2.81 ± 0.097; for CWVIKGRAKCV, -0.26 ± 1. CLSLFTSYV returned an amyloid nucleation score of 0.415 ± 0.31.

For VLILNQE, the amyloid nucleation score entry was “inactive”. Then LQVIHGSPRLRLYDYQRNNF, with 7.482 ± 0.04; and YMVEV, with 0.171 ± 0.34. For LSIVKFI the value was 1.3 ± 0.12. Then PCTRS, with 0.414 ± 0.31.

IADQTMISRYSRS showed an amyloid nucleation score of 5.89 ± 0.084. Substance CFDKLAVMACKSSGWHNPPT returned an amyloid nucleation score of 0.75 ± 0.43. Regarding SADDL, the amyloid nucleation score was found to be 0.972 ± 0.39. VSYVDESHFVNTKSDMPSVS yielded an amyloid nucleation score of -0.392 ± 0.63. Then FSYFVFLVKFVTVFTPTIHV, with -1.12 ± 0.3.

Substance NSLHSDSVLIKERDADKSTR came in with an amyloid nucleation score of 1.73 ± 0.14. Then GGLPGRVVEATCWYPVINVR, with 0.889 ± 0.47; and RYTLRGSGEWLVHDTLGVTD, with 0.267 ± 0.5.

RLSRCL yielded an amyloid nucleation score of 4.23 ± 0.055. For the substance MKTGLGVFRSFDLVVYNRR, the amyloid nucleation score result was “inactive”. MKPSSSLTYLE displayed an amyloid nucleation score of -0.11 ± 0.5. Turning to NSWFLYRCKFVLRHSYVN, the amyloid nucleation score result is “inactive”. LLSRPTGQLVVPSQGLHFCY registered an amyloid nucleation score of 0.242 ± 0.61. Then LMSIVVKVVDSTIIIKCVFS, with -0.667 ± 0.76; and NFPMSSFKEEIWLRTRVPLC, with 0.691 ± 0.66. Substance LTYACSWYQKSQFGSCLNEW came in with an amyloid nucleation score of 0.449 ± 0.26.

The substance AWTAETFKVLCVVMSY came in with an amyloid nucleation score of 0.382 ± 0.24.

As for FSVRRLVDHFSNSMEDPHLP, the amyloid nucleation score was -0.342 ± 1. For SSNNMEIIYVFFLCREAQKL the value was -0.78 ± 1.1; for TVSKDDMTALVSAIMASNRW, 1.06 ± 0.32; for FEDIFCWVY, -1.79 ± 0.76. Take RELCVFASCAFVGLLVESWK: the amyloid nucleation score amounted to 6.16 ± 0.078. LSQQSSMLKDRITDICGDLL: the amyloid nucleation score worked out at 1.4 ± 0.33. MLLVVYGQVRTISLLRRRSS came in with an amyloid nucleation score of -0.243 ± 0.74. YTIAECQSCPQNFLFFH: the amyloid nucleation score stood at 5.96 ± 0.063. DYGLVCY showed an amyloid nucleation score of 0.277 ± 0.22.

SPYVRWDKTNLIGWEWYRVE returned an amyloid nucleation score of -0.819 ± 0.43. The substance SAPECNLAARVFYLLSPMGM registered an amyloid nucleation score of 0.13 ± 1.1.

GSKSCRDYNIKFIYDRYFMG: the amyloid nucleation score entry is “inactive”.

With IFSISLLMAQYIGVWFFRRV, the amyloid nucleation score result was “inactive”. The substance MCTAFSDNHHTRTYPAPKSH returned an amyloid nucleation score of 0.196 ± 0.46.

The substance FFGRGSHKAGYYSCTTSLTQ had an amyloid nucleation score of 1.07 ± 0.16.

As for ANQDGNCFGFISVGSQLSLM, the amyloid nucleation score stood at 0.387 ± 0.8. For the substance GVDKGSVYG, the amyloid nucleation score entry is “inactive”.

In turn, TISDTCHESRLDVMRNVPYM gave an amyloid nucleation score of 5.091 ± 0.043. In turn, NWVMVLGLGVCKSIWLLPMV had an amyloid nucleation score of -0.572 ± 0.76. For the substance LSQCYSRLLVSTMKSH, the amyloid nucleation score turned out to be 0.854 ± 0.14. In the case of CCDNY, the amyloid nucleation score was -0.778 ± 0.54.

TLFQFWKYLVSTTCIML had an amyloid nucleation score of 3.18 ± 0.11. Then SYDDVVILDFYDGIL, with “inactive”.

Regarding RCVWINVGCSPILIGYAAHY, the amyloid nucleation score turned out to be 8.728 ± 0.03. Substance HLTSKVTGASIKVTKVNYLD had an amyloid nucleation score of -1.25 ± 0.64. HWRFFCMDHNFILSVKDVVA: the amyloid nucleation score entry was “inactive”. As to RTDVFWNRMQRDSLFKPNAT, the amyloid nucleation score stood at 0.192 ± 0.44. Then SLTFSGMP, with “inactive”; and TRLCRNLAASPGFLWTVYKS, with “inactive”. In the case of QRADQWVSRKLRPSIARL, the amyloid nucleation score came out at 1.52 ± 0.34.

Regarding DFYNRASLSYTSDVASGSPC, the amyloid nucleation score entry was “inactive”. Take HGHLHYLMNR: the amyloid nucleation score is -0.031 ± 1. GCLMVGINGCPIGPM registered an amyloid nucleation score of -1.11 ± 1.1. GMSRYMHSIYD yielded an amyloid nucleation score of 1 ± 0.41.

VARVWEWFCVCWTWDSELVG came in with an amyloid nucleation score of 3.69 ± 0.057. Turning to DGVSMFWMPHAKRALLYGSY, the amyloid nucleation score was found to be 0.063 ± 1.1. Then WLGYEEGG, with 0.508 ± 0.62; and TRALDPVSVSRISVRQQPLA, with 1.12 ± 0.2. On to RMKMDNIPFEIYVFTVTLLD, for which the amyloid nucleation score result was “inactive”. In turn, CYVLFIRSDYGTWSMVH yielded an amyloid nucleation score of 4.53 ± 0.051. Then VWQSYRFEEYFCICFQLASA, with 7.923 ± 0.031. For RYNTYML the value was -1.33 ± 0.36; for FKIAGRI, “inactive”.

For the origin of these results see the supplement of paper PMC12042874.
